# In paper PMC9722607 (Structure (London, England : 1993), 2022):
# B1: 6x-His-tagged PqsE (wild type) (enzyme)
# chain: MLRLSAPGQLDDDLCLLGDVQVPVFLLRLGEASWALVEGGISRDAELVWADLCRWVADPSQVHYWLITHKHYDHCGLLPYLCPRLPNVQVLASERTCQAWKSESAVRVVERLNRQLLRAEQRLPEACAWDALPVRAVADGEWLELGPRHRLQVIEAHGHSDDHVVFYDVRRRRLFCGDALGEFDEAEGVWRPLVFDDMEAYLESLERLQRLPTLLQLIPGHGGLLRGRLAADGAESAYTECLRLCRRLLWRQSMGESLDELSEELHRAWGGQSVDFLPGELHLGSMRRMLEILSRQALPLD
# Key:
# [1] = target: the molecule itself; assay: cryo-EM structure
# [2] = target: B1; assay: pull-down
Binder,stoichiometry N [1],efficacy of binding relative to WT RhlR [2]
"RhlR (wild type, untagged, bound to mBTL) (natural protein) MRNDGGFLLWWDGLRSEMQPIHDSQGVFAVLEKEVRRLGFDYYAYGVRHTIPFTRPKTEVHGTYPKAWLERYQMQNYGAVDPAILNGLRSSEMVVWSDSLFDQSRMLWNEARDWGLCVGATLPIRAPNNLLSVLSVARDQQNISSFEREEIRLRLRCMIELLTQKLTDLEHPMLMSNPVCLSHREREILQWTADGKSSGEIAIILSISESTVNFHHKNIQKKFDAPNKTLAAAYAAALGLI",2,–
RhlR F53A (natural protein) MRNDGGFLLWWDGLRSEMQPIHDSQGVFAVLEKEVRRLGFDYYAYGVRHTIPATRPKTEVHGTYPKAWLERYQMQNYGAVDPAILNGLRSSEMVVWSDSLFDQSRMLWNEARDWGLCVGATLPIRAPNNLLSVLSVARDQQNISSFEREEIRLRLRCMIELLTQKLTDLEHPMLMSNPVCLSHREREILQWTADGKSSGEIAIILSISESTVNFHHKNIQKKFDAPNKTLAAAYAAALGLI,–,50%
RhlR C157S (natural protein) MRNDGGFLLWWDGLRSEMQPIHDSQGVFAVLEKEVRRLGFDYYAYGVRHTIPFTRPKTEVHGTYPKAWLERYQMQNYGAVDPAILNGLRSSEMVVWSDSLFDQSRMLWNEARDWGLCVGATLPIRAPNNLLSVLSVARDQQNISSFEREEIRLRLRSMIELLTQKLTDLEHPMLMSNPVCLSHREREILQWTADGKSSGEIAIILSISESTVNFHHKNIQKKFDAPNKTLAAAYAAALGLI,–,70%
B1,2,–
